This passage reports Kd results from publication PMC3361065 (Biochemistry, 2012).

Holding throughout (assay): EMSA
In general terms: Mobility shift assays separate free from complexed probe on a gel.

The target in data set [1] is T1, yeast mitochondrial RNA polymerase (scMtRNAP) WT (UniProt P13433 1-1351).
T1 sequence: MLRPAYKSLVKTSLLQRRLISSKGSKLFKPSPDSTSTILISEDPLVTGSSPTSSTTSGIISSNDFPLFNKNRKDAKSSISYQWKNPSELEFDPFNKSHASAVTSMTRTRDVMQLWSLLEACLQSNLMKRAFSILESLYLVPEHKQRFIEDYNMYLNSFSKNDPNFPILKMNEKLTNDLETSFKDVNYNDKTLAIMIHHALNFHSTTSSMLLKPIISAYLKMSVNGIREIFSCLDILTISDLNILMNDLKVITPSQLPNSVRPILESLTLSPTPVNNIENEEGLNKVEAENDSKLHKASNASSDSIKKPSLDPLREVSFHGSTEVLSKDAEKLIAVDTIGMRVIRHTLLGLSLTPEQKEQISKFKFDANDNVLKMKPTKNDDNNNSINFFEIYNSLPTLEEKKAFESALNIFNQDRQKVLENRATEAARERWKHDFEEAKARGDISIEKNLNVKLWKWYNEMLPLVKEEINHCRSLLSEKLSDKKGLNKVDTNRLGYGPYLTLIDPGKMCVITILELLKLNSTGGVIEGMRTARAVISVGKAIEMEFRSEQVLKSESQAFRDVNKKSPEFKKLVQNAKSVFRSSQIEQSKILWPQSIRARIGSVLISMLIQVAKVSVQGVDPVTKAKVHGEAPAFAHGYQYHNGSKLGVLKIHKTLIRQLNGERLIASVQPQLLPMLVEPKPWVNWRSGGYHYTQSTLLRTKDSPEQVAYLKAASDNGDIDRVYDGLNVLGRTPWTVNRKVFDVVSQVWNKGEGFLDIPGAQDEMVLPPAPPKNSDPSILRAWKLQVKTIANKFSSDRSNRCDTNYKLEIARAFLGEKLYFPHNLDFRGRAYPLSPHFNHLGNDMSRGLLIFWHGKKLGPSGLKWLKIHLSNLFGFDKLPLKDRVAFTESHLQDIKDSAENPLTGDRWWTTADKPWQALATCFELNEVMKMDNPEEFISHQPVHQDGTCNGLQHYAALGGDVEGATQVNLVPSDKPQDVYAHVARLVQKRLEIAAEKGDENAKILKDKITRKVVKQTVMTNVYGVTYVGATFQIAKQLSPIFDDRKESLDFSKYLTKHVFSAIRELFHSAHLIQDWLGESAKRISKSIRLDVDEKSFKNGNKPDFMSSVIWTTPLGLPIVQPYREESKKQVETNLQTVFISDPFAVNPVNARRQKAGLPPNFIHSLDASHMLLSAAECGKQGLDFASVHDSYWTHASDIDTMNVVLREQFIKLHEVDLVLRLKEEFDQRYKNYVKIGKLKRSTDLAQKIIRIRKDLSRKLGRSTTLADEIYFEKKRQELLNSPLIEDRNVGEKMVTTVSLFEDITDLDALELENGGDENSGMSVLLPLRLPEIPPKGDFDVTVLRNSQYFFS

The next data set addresses T2, scMtRNAP ΔHNG (UniProt P13433 1-640+644-1351, internal_change).
T2 sequence: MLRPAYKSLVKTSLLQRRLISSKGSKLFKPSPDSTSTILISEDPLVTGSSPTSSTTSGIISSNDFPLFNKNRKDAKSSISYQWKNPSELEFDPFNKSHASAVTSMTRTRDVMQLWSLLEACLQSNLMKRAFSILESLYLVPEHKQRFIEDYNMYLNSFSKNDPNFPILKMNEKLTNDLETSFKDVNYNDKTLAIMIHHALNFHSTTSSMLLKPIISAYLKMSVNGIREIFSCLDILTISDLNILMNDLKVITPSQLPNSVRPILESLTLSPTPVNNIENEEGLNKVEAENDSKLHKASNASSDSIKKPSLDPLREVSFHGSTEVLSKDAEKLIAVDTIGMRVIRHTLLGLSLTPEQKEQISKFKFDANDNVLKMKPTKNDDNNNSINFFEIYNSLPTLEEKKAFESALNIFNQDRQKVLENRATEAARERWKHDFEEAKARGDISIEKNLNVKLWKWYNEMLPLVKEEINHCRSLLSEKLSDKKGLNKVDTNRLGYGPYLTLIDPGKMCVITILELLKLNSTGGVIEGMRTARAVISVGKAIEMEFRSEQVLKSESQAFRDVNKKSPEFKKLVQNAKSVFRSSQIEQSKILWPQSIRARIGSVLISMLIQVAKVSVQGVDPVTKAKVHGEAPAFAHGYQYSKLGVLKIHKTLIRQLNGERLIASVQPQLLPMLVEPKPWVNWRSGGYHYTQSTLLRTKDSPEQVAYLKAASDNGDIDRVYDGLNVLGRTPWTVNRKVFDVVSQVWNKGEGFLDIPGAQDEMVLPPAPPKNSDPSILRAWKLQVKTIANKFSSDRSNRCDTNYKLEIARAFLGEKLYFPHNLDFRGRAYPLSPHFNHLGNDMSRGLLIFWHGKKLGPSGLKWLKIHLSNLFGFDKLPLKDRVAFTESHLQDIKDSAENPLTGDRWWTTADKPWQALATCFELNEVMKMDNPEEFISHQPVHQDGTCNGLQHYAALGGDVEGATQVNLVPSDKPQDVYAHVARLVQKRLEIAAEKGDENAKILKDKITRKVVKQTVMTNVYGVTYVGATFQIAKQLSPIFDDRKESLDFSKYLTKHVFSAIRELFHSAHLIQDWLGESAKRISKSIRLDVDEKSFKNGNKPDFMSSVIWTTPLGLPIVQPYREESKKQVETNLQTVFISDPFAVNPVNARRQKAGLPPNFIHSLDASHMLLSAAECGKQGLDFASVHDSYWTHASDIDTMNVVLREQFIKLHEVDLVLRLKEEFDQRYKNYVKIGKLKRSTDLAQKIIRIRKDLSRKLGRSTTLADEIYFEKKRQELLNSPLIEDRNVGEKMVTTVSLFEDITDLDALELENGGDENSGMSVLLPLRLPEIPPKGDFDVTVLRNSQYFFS

Data set [2] has as its target scMtRNAP ΔNGS;MTF1 (yeast mitochondrial transcription factor) (Saccharomyces cerevisiae?;Saccharomyces …, UniProt P13433;P14908 1-641+645-1351;1-341, internal_change|).
Data set [3] concerns the target scMtRNAP ΔHNG;MTF1 (yeast mitochondrial transcription factor) (Saccharomyces cerevisiae?;Saccharomyces …, UniProt P13433;P14908 1-640+644-1351;1-341, internal_change|).
In data set [4] the target is yeast mitochondrial RNA polymerase (scMtRNAP) WT;MTF1 (yeast mitochondrial transcription factor) (Saccharomyces cerevisiae?;Saccharomyces …, UniProt P13433;P14908 1-1351;1-341, |).

Chain of scMtRNAP ΔNGS;MTF1 (yeast mitochondrial transcription factor) (P14908 whole entry, stated change not applied, one chain of several): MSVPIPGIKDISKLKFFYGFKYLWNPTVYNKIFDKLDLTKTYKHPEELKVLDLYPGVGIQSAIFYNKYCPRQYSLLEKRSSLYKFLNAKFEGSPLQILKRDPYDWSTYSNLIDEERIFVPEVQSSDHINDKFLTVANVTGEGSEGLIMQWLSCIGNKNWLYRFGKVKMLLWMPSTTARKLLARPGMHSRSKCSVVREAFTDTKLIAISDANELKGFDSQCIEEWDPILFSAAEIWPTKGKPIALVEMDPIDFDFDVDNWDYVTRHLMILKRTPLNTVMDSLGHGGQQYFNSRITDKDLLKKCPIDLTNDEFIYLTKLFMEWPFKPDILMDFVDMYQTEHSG

B1: 33 bp Bubble (pre-melted) promoter (dsDNA)
DNA 1: CGCGTAAAACTATTCTTTATTACTTATATCGCG
DNA 2: CGCGATATGCAGCTTAAAGAATAGTTTTACGCG
For orientation: Kd means the equilibrium constant for the complex coming apart. Low values mean higher affinity, high ones lower affinity. For B1, the Kd in data set [1] is 4300 nM; with scMtRNAP ΔHNG, 5300 nM; in data set [2], 430 nM; in data set [3], 340 nM; in data set [4], 160 nM.
